Experimental data published in paper PMC4091980.

Assays:
PH domain of AKT = PH domain of AKT (UniProt P31749); test: SPR
PH domain of PDK1 = PH domain of PDK1 (UniProt O15530); test: SPR
UniProt O15530, sequence (O15530 459-550): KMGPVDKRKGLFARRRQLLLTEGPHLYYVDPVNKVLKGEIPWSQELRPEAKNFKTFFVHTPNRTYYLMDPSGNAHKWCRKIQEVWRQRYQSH

PH domain of AKT (from UniProt P31749 5-108) (domain or fragment)
Kd (PH domain of AKT): 0.0376 µM
Kd (PH domain of PDK1): 0.0498 µM
